# In IntAct's records for PubMed 29892012:
# B1: Coiled-coil domain-containing protein 120 (Homo sapiens), Q96HB5-4 (parent)
# chain: MRREPRYQGQVGPDIHTDSERTLSSHQPRPLDSTKMEVKGQLISSPTFNAPAALFGEAAPQVKSERLRGLLDRQRTLQEALSLKLQELRKVCLQEAELTGQLPPECPLEPGERPQLVRRRPPTARAYPPPHPNQAHHSLCPAEELALEALEREVSVQQQIAAAARRLALAPDLSTEQRRRRRQVQADALRRLHELEEQLRDVRARLGLPVLPLPQPLPLSTGSVITTQGVCLGMRLAQLSQEDVVLHSESSSLSESGASHDNEEPHGCFSLAERPSPPKAWDQLRAVSGGSPERRTPWKPPPSDLYGDLKSRRNSVASPTSPTRSLPRSASSFEGRSVPATPVLTRGAGPQLCKPEGLHSRQWSGSQDSQMGFPRADPASDRASLFVARTRRSNSSEALLVDRAAGGGAGSPPAPLAPSASGPPVCKSSEVLYERPQPTPAFSSRTAGPPDPPRAARPSSAAPASRGAPRLPPVCGDFLLDYSLDRGLPRSGGGTGWGELPPAAEVPGPLSRRDGLLTMLPGPPPVYAADSNSPLLRTKDPHTRATRTKPCGLPPEAAEGPEVHPNPLLWMPPPTRIPSAGERSGHKNLALEGLRDWYIRNSGLAAGPQRRPVLPSVGPPHPPFLHARCYEVGQALYGAPSQAPLPHSRSFTAPPVSGRYYADFLYPPELSARLSDLTLEGEQSSSSDTQTPGTLV
# partner: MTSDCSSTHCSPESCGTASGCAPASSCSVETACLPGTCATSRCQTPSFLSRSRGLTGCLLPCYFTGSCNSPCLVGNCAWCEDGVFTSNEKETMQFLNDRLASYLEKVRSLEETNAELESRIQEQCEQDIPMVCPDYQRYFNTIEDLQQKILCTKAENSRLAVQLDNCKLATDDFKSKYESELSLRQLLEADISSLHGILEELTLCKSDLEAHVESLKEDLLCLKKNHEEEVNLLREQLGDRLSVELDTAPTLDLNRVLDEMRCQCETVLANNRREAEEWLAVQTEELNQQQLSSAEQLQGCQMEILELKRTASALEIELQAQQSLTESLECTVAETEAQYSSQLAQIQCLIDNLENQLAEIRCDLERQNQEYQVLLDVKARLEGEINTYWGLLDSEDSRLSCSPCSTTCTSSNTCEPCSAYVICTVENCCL
# B2: BTB/POZ domain-containing protein KCTD14 (Homo sapiens), Q9BQ13 (parent)
# chain: MWQGCAVERPVGRMTSQTPLPQSPRPRRPTMSTVVELNVGGEFHTTTLGTLRKFPGSKLAEMFSSLAKASTDAEGRFFIDRPSTYFRPILDYLRTGQVPTQHIPEVYREAQFYEIKPLVKLLEDMPQIFGEQVSRKQFLLQVPGYSENLELMVRLARAEAITARKSSVLVCLVETEEQDAYYSEVLCFLQDKKMFKSVVKFGPWKAVLDNSDLMHCLEMDIKAQGYKVFSKFYLTYPTKRNEFHFNIYSFTFTWW
# B3: Ligand of Numb protein X 2 (Homo sapiens), Q8N448 (parent)
# chain: MGTTSDEMVSVEQTSSSSLNPLCFECGQQHWTRENHLYNYQNEVDDDLVCHICLQPLLQPLDTPCGHTFCYKCLRNFLQEKDFCPLDRKRLHFKLCKKSSILVHKLLDKLLVLCPFSSVCKDVMQRCDLEAHLKNRCPGASHRRVALERRKTSRTQAEIENENGPTLLDPAGTLSPEADCLGTGAVPVERHLTSASLSTWSEEPGLDNPAFEESAGADTTQQPLSLPEGEITTIEIHRSNPYIQLGISIVGGNETPLINIVIQEVYRDGVIARDGRLLAGDQILQVNNYNISNVSHNYARAVLSQPCNTLHLTVLRERRFGNRAHNHSDSNSPREEIFQVALHKRDSGEQLGIKLVRRTDEPGVFILDLLEGGLAAQDGRLSSNDRVLAINGHDLKYGTPELAAQIIQASGERVNLTIARPGKPQPGNTIREAGNHSSSSQHHTPPPYYSRPSSHKDLTQCVTCQEKHITVKKEPHESLGMTVAGGRGSKSGELPIFVTSVPPHGCLARDGRIKRGDVLLNINGIDLTNLSHSEAVAMLKASAASPAVALKALEVQIVEEATQNAEEQPSTFSENEYDASWSPSWVMWLGLPSTLHSCHDIVLRRSYLGSWGFSIVGGYEENHTNQPFFIKTIVLGTPAYYDGRLKCGDMIVAVNGLSTVGMSHSALVPMLKEQRNKVTLTVICWPGSLV
# partner: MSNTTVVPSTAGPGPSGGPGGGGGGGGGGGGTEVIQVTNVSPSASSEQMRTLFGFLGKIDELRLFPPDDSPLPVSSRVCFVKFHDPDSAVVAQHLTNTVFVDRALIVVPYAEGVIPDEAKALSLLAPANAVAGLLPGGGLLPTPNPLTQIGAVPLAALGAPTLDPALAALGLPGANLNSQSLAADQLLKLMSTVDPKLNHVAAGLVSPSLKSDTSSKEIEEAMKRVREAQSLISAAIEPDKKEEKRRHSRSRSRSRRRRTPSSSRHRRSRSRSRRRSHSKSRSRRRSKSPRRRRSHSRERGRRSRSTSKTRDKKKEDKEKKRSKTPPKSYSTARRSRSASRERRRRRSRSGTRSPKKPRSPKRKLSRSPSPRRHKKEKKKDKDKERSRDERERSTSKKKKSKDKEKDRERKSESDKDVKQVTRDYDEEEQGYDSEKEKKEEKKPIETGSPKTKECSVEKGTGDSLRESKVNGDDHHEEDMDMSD
# B4: Synaptotagmin-16 (Homo sapiens), Q17RD7 (parent)
# chain: MVLAMASQDVQNFFQPFSSWISRVYEALQQAGDMLSASLVNISKQDSKLSDKLDQDLDNIQIQETYFEDEEQDNDWSQEDANSLFLEVDHFSCCNSDLQDSAQNSSPSLSQHAKDSCSTMSQWPNWASDDRKLPHVLSSIAEEEHHLEKQRSGLQHGFDSQLPGTLETVNGKKQVNSFGDDEELSTSSDSDEEVIKQFEISVSRSQSFRSVTSEKGKQTGLEQKPKFSRSLLTHGEDGTEVSACEDLDGASQRRYSENLSYGEDDHIPAHSQSPCERGDAKHHGTSHQESSVVQSLRRQSTEGSLEMETAFNSRGFEDSYATDSSSMWSPEEQDRTNLQVPSGVSEPISKCGDLDVIFEYRAASQKLTVTIVRAQGLPDKDRSGVNSWQVHVVLLPGKKHRGRTNIQRGPNPVFREKVTFAKLEPRDVAACAVRFRLYAARKMTRERMMGEKLFYLSHLHPEGEMKVTLVLEPRSNISSGGSPLSPSAVSHSDSTSSTQSLSHGGAPELLVGLSYNATTGRLSVEMIKGSHFRNLAVNRAPDTYGKLFLLNSVGQEMSRCKTSIRRGQPNPVYKETFVFQVALFQLSDVTLMISVYNRRTMKRKEMIGWIALGQNSSGEEEQDHWEEMKETKGQQICRWHTLLES
# partner: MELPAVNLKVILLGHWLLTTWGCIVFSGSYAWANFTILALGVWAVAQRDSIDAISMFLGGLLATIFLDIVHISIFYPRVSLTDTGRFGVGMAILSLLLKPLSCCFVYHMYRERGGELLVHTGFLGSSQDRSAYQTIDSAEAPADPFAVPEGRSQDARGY
# B5: Ribosome assembly protein METTL17, mitochondrial (Homo sapiens), Q9H7H0 (parent)
# chain: MAAALKCLLTLGRWCPGLGVAPQARALAALVPGVTQVDNKSGFLQKRPHRQHPGILKLPHVRLPQALANGAQLLLLGSAGPTMENQVQTLTSYLWSRHLPVEPEELQRRARHLEKKFLENPDLSQTEEKLRGAVLHALRKTTYHWQELSYTEGLSLVYMAARLDGGFAAVSRAFHEIRARNPAFQPQTLMDFGSGTGSVTWAAHSIWGQSLREYMCVDRSAAMLVLAEKLLKGGSESGEPYIPGVFFRQFLPVSPKVQFDVVVSAFSLSELPSKADRTEVVQTLWRKTGHFLVLVENGTKAGHSLLMDARDLVLKGKEKSPLDPRPGFVFAPCPHELPCPQLTNLACSFSQAYHPIPFSWNKKPKEEKFSMVILARGSPEEAHRWPRITQPVLKRPRHVHCHLCCPDGHMQHAVLTARRHGRDLYRCARVSSWGDLLPVLTPSAFPPSTAQDPSES
# partner: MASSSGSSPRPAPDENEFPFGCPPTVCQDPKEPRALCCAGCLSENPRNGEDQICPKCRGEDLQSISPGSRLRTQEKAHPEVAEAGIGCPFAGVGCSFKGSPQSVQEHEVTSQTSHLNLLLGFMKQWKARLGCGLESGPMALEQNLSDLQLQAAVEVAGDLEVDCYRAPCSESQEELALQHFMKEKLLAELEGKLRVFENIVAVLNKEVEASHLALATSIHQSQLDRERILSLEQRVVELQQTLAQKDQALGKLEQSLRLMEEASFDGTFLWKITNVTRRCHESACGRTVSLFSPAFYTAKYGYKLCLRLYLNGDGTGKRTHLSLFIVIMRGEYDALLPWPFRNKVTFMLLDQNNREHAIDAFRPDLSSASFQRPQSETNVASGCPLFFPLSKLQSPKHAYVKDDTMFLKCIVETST
# B6: Enhancer of mRNA-decapping protein 3 (Homo sapiens), Q96F86 (parent)
# chain: MATDWLGSIVSINCGDSLGVYQGRVSAVDQVSQTISLTRPFHNGVKCLVPEVTFRAGDITELKILEIPGPGDNQHFGDLHQTELGPSGAGCQVGINQNGTGKFVKKPASSSSAPQNIPKRTDVKSQDVAVSPQQQQCSKSYVDRHMESLSQSKSFRRRHNSWSSSSRHPNQATPKKSGLKNGQMKNKDDECFGDDIEEIPDTDFDFEGNLALFDKAAVFEEIDTYERRSGTRSRGIPNERPTRYRHDENILESEPIVYRRIIVPHNVSKEFCTDSGLVVPSISYELHKKLLSVAEKHGLTLERRLEMTGVCASQMALTLLGGPNRLNPKNVHQRPTVALLCGPHVKGAQGISCGRHLANHDVQVILFLPNFVKMLESITNELSLFSKTQGQQVSSLKDLPTSPVDLVINCLDCPENVFLRDQPWYKAAVAWANQNRAPVLSIDPPVHEVEQGIDAKWSLALGLPLPLGEHAGRIYLCDIGIPQQVFQEVGINYHSPFGCKFVIPLHSA
# partner: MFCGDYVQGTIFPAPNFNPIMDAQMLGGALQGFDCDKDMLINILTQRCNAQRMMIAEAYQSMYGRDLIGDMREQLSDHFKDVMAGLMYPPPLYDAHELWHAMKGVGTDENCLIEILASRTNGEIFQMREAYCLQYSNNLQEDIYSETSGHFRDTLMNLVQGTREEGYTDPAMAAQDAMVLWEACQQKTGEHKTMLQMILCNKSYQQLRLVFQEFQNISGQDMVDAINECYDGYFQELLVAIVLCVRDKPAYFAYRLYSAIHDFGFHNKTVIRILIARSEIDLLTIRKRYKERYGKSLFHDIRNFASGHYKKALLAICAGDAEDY
# Variants of: B1
# Conditions: with KRT40, Q6A162
row,Variant,effect of a mutation on the interaction
1,R346W,with no effect

# Variants of: B2
# Conditions: with stk16_human STK16, O75716
# Chain of stk16_human STK16, O75716 (O75716 whole entry): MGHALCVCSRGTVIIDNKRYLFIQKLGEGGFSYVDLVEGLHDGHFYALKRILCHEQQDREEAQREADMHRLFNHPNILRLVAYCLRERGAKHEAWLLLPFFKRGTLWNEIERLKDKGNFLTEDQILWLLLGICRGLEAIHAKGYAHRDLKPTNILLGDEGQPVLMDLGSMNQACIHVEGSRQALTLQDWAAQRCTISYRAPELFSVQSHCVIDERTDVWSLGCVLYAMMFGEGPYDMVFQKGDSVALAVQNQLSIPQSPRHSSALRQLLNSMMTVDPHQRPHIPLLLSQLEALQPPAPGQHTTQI
row,Variant,effect of a mutation on the interaction
1,V168M,disrupting interaction strength

# Variants of: B3
# Conditions: with srs11_human SRSF11, Q05519
row,Variant,effect of a mutation on the interaction
1,P669A,with no effect

# Variants of: B4
# Conditions: with atrap_human AGTRAP
row,Variant,effect of a mutation on the interaction
1,R441W,with no effect

# Variants of: B5
# Conditions: with traf1_human TRAF1, Q13077
row,Variant,effect of a mutation on the interaction
1,R212H,with no effect

# Variants of: B6
# Conditions: with anx10_human ANXA10, Q9UJ72
row,Variant,effect of a mutation on the interaction
1,F213L,with no effect
